This passage reports inhibition of the PLA2 activity of Bbil-TX (substrate 4-nitro-3-octanoyloxy-benzoic acid) after preincubation of enzyme and inhibitor for 30 min results from article PMC3591176.

This assay has as its target Bbil-TX, basic PLA2 from Bothriopsis bilineata snake venom (Bothriopsis bilineata).

Substance “crotapotin isoform F3 from Crotalus durissus cascavella rattlesnake venom (natural protein)” yielded an inhibition of the PLA2 activity of Bbil-TX (substrate 4-nitro-3-octanoyloxy-benzoic acid) after preincubation of enzyme and inhibitor for 30 min at 37°C of 50%.
